Measured values reported in patent US20200377573.

System: HTRA1-inhibiting peptides (Example 3-2 and 3-3, members not named)

Human plasma kallikrein, sequence (chain, as listed by the source): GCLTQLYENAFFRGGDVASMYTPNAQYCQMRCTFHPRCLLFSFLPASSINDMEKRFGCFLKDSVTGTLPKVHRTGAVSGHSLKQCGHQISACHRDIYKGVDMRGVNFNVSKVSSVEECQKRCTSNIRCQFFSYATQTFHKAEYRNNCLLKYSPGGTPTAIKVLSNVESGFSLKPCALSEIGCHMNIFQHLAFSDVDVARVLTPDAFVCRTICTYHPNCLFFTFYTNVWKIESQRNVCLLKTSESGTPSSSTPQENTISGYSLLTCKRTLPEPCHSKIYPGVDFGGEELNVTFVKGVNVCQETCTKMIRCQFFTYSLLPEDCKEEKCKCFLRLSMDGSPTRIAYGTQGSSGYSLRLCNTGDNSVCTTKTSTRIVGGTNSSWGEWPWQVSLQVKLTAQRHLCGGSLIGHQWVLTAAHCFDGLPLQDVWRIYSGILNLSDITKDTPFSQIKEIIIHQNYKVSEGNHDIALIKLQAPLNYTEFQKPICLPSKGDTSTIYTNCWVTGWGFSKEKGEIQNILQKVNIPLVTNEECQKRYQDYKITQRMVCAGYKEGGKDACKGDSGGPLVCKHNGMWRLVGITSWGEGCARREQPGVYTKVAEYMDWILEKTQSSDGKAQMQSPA

| Substance | protease activity (decomposition of a peptide substrate) |
| --- | --- |
| Bovine α-chymotrypsin | did not suppress the protease activity of any of the proteases at a final inhibitor concentration of 1 micro M |
| Human protein C | did not suppress the protease activity of any of the proteases at a final inhibitor concentration of 1 micro M |
| Human thrombin | did not suppress the protease activity of any of the proteases at a final inhibitor concentration of 1 micro M |
| Human uPA | did not suppress the protease activity of any of the proteases at a final inhibitor concentration of 1 micro M |
| Human tryptase | did not suppress the protease activity of any of the proteases at a final inhibitor concentration of 1 micro M |
| Human plasma kallikrein | did not suppress the protease activity of any of the proteases at a final inhibitor concentration of 1 micro M |
